# Patent publication US20080038273A1 (INSTITUT NATIONAL DE LA SANTE ET DE LA RECHERCHE MEDICALE …, published 2008)
# Target: T1, Recombinant human CD28 (human, UniProt P10747 19-152, limits assumed)
# T1 construct: also called CD28 molecule
# Experiment: BIACORE, recombinant human CD28 immobilized
# Description: Recombinant human CD28 was immobilized on the biosensor (BIACORE) detector.
binder,measurement,value
"CD28.3 scFv/α1-antitrypsin fusion protein (other, The pIG6 product would also carry DYKD at the N-terminus; not shown: c-myc marker and polyhistidine marker of the vector (pIG6 or pSECTagB)) DYKDIVKLQQSGAELVKPGASVRLSCKASGYTFTEYIIHWIKLRSGQGLEWIGWFYPGSNDIQYNAKFKGKATLTADKSSSTVYMELTGLTSEDSAVYFCARRDDFSGYDALPYWGQGTMVTVSSGGGGSGGGGSGGGGSDIQMTQSPASLSVSVGETVTITCRTNENIYSNLAWYQQKQGKSPQLLIYAATHLVEGVPSRFSGSGSGTQYSLKITSLQSEDFGNYYCQHFWGTPCTFGGGTKLEIKRTVAAPSEFNKITPNLAEFAFSLYRQLAHQSNSTNIFFSPVSIATAFAMLSLGTKADTHDEILEGLNFNLTEIPEAQIHEGFQELLRTLNQPDSQLQLTTGNGLFLSEGLKLVDKFLEDVKKLYHSEAFTVNFGDTEEAKKQINDYVEKGTQGKIVDLVKELDRDTVFALVNYIFFKGKWERPFEVKDTEEEDFHVDEVTTVKVPMMKRLGMFNIQHCKKLSSWVLLMKYLGNATAIFFLPDEGKLQHLENELTHDIITKFLENEDRRSASLHLPKLSITGTYDLKSVLGQLGITKVFSNGADLSGVTEEAPLKLSKAVHKAVLTIDEKGTEAAGAMFLEAIPMSIPPEVKFNKPFVFLMIEQNTKSPLFMGKVVNPTQKLEGEFEQKLISEEDLNHHHHH",Ka,2.86e+09 M⁻¹
same,Kd,0.349 nM
